Experimental data from publication PMC11338267, “Phosphoglycerate kinase is a central leverage point in Parkinson’s disease–driven neuronal metabolic deficits” (Science Advances, 2024).

Target: T1, untagged PGK1 (phosphoglycerate kinase 1), cleaved from His-SUMO-PGK1 (UniProt P00558 1-417)
T1 construct: phosphoglycerate kinase 1 (PGK1), full-length protein; also called His-tagged SUMO-PGK1; cleaved PGK1; source: E. coli BL21 (DE3), purified (Ni-NTA, SUMO protease cleavage, second Ni-NTA flow-through, Superdex200 gel filtration)
T1 sequence (looked up): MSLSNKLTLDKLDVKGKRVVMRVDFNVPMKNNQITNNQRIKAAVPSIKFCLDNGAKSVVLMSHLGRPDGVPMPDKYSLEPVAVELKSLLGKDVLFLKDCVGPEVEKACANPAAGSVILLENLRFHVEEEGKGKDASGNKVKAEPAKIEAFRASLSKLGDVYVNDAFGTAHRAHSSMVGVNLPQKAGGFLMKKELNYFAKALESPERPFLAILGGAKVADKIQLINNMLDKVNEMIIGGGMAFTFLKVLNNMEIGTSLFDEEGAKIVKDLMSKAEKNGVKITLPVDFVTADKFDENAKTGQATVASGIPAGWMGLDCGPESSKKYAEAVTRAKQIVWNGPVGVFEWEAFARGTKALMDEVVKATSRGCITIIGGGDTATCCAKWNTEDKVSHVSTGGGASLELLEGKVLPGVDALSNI
Assay: MST; His-DJ-1 labelled with RED-tris-NTA (10 ul of 100 nM added to each sample), PGK1 titrated in a 16-step 1:1 serial dilution from a 152 uM stock; PBS-T buffer; 30 min at room temperature in the dark; Monolith NT.115, 40% LED, medium MST power
Conditions: both partners purified

Kd: ~15 µM
B1: His-tagged DJ-1 full-length protein (natural protein, UniProt Q99497 1-189, looked up)
chain: MASKRALVILAKGAEEMETVIPVDVMRRAGIKVTVAGLAGKDPVQCSRDVVICPDASLEDAKKEGPYDVVVLPGGNLGAQNLSESAAVKEILKEQENRKGLIAAICAGPTALLAHEIGFGSKVTTHPLAKDKMMNGGHYTYSENRVEKDGLILTSRGPGTSFEFALAIVEALNGKEVAAQVKAPLVLKD
notes: DJ-1 (product of the PARK7 gene), full-length protein; For MST the His tag was labelled non-covalently with the dye RED-tris-NTA; also called His-DJ-1; PARK7/DJ-1; source: E. coli BL21 (DE3), purified (Ni-NTA, Superdex200 gel filtration)
